In patent US20220259315A1 (MABQUEST, published 2022) one finds Kd, koff and kon data, which are given here for 14 molecules.

As a reminder, the Kd is the constant that tells how readily two partners part at equilibrium. In general, koff refers to the rate constant with which the complex falls apart. In general, kon refers to the rate constant with which the complex forms.

In assay [1] the target is T1, recombinant human Fc-PD-1 protein (human, UniProt Q15116 25-170).
T1 construct: may be the same protein as the PD-1 Fc fusion of the Luminex assays; also called recombinant human PD-1 in an Fc fusion construct; not shown: Fc part not described
T1 sequence (Q15116 25-170): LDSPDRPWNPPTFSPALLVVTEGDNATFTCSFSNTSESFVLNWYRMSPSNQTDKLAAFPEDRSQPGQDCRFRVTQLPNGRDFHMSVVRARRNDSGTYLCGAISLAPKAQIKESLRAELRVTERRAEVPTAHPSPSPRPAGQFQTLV
Description: Biacore, Fab, human Fc-PD-1. (In general: SPR reads the build-up and loss of mass on a sensor chip optically.)

Assay [2] concerns the target T2, monkey Fc-PD-1 protein (monkey, UniProt Q15116 25-170 (human entry)).
T2 construct: not shown: Fc part not described
T2 chain: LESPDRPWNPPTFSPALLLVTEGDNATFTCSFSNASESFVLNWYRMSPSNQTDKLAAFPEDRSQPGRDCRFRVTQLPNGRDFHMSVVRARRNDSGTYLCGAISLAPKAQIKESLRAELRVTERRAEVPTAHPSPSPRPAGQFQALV
Briefly: Biacore, Fab, monkey Fc-PD-1.

Assay [3] addresses T2, monkey Fc-PD-1 protein. Briefly: Biacore, Fab, monkey Fc-PD-1.
Assay [4] deals with T1, recombinant human Fc-PD-1 protein. Description: Biacore, Fab, human Fc-PD-1. This is another data set of the same source.

Like-named read-outs stand apart in the source and are kept apart here.

B1: A35775 (Fab, V domains shown)
VH: EVQLVQSGAEVKKPGESLKISCKGSGYSFTNFYIHWVRQAPGQRLEWMGSIYPNYGDTAYNQKFKDRFVFSLDTSVSTAYLQISSLKAEDTAVYYCARGYSYAMDYWGQGTTVTVSS
VL: DIQMTQSPSSVSASVGDRVTITCSASQGISGDLNWYQQKPGQAPRLLIYHTSSLHSGVPSRFSGSGSGTDFTLTISSLQPEDFATYYCQYYSKDLLTFGGGTKLEIK
notes: humanized Fab clone of 135C12; also called humanized antibody A35775
For B1, in assay [1], the Kd turned out to be 2.54 nM, the koff came to 0.000203 s⁻¹ and the kon was 80200 M⁻¹ s⁻¹. In addition, in the assay with monkey Fc-PD-1 protein [2], binding was characterised by a dissociation constant (Kd) of 5.73 nM, the koff was found to be 0.000347 s⁻¹ and the kon was 60500 M⁻¹ s⁻¹.

B2: A35789 (Fab, V domains shown)
VH: EVQLVQSGAEVKKPGESLKISCKGSGYSFTNFYIHWVRQMPGKGLEWMGSIYPNYGDTAYNQKFKDRVTITADKSTSTAYMELSSLRSEDTAVYYCARGYSYAMDYWGQGTTVTVSS
VL: DIQMTQSPSSVSASVGDRVTITCSASQGISGDLNWYQQKPGQAPRLLIYHTSSLHSGIPARFSGSGSGTDFTLTISRLEPEDFAVYYCQYYSKDLLTFGGGTKLEIK
notes: humanized Fab clone of 135C12; also called humanized antibody A35789
In the case of B2, in assay [1], the Kd was 4.17 nM, the koff amounted to 0.000293 s⁻¹ and the association rate constant (kon) turned out to be 70100 M⁻¹ s⁻¹. In the assay with monkey Fc-PD-1 protein [2], binding was put at a Kd of 6.19 nM, the koff worked out at 0.000413 s⁻¹ and the association rate constant (kon) came to 66700 M⁻¹ s⁻¹.

B3: A36443 (Fab, V domains shown)
VH: EVQLVQSGAEVKKPGATVKISCKVSGYTFTNFYIHWVRQARGQRLEWIGSIYPNYGDTAYNQKFKDRVTITADKSTSTAYMELSSLRSEDTAVYYCARGYSYAMDYWGQGTTVTVSS
VL: DIQMTQSPSSVSASVGDRVTITCSASQGISGDLNWYQQKPGQAPRLLIYHTSSLHSGVPSRFSGSGSGTEFTLTISRLEPEDFAVYYCQYYSKDLLTFGGGTKLEIK
notes: humanized Fab clone of 135C12; also called humanized antibody A36443
As for B3, in assay [1], the Kd was found to be 3.02 nM, the koff is 0.000215 s⁻¹ and the kon is 71200 M⁻¹ s⁻¹. Moreover, in the assay with monkey Fc-PD-1 protein [2], binding was put at a Kd of 6.16 nM, the koff worked out at 0.000585 s⁻¹ and the kon stood at 94900 M⁻¹ s⁻¹.

B4: A35774 (Fab, V domains shown)
VH: EVQLVQSGAEVKKPGESLKISCKGSGYSFTNFYIHWVRQAPGQRLEWMGSIYPNYGDTAYNQKFKDRFVFSLDTSVSTAYLQISSLKAEDTAVYYCARGYSYAMDYWGQGTTVTVSS
VL: DIQMTQSPSSVSASVGDRVTITCSASQGISGDLNWYQQKPGKAPKLLIYHTSSLHSGVPSRFSGSGSGTDFTLTISSLQPEDFATYYCQYYSKDLLTFGGGTKLEIK
notes: humanized Fab clone of 135C12; also called humanized antibody A35774
In the case of B4, in assay [1], the Kd stood at 2.61 nM, the koff came to 0.000211 s⁻¹ and the kon amounted to 80900 M⁻¹ s⁻¹. In the assay with monkey Fc-PD-1 protein [2], this molecule gave a Kd of 2.79 nM, a koff of 0.000194 s⁻¹ and an on-rate constant (kon) of 69300 M⁻¹ s⁻¹.

B5: A35783 (Fab, V domains shown)
VH: EVQLVQSGAEVKKPGESLKISCKGSGYSFTNFYIHWVRQARGQRLEWIGSIYPNYGDTAYNQKFKDRFVFSLDTSVSTAYLQISSLKAEDTAVYYCARGYSYAMDYWGQGTTVTVSS
VL: DIQMTQSPSSLSASVGDRVTITCSASQGISGDLNWYQQKPGKTPKLLIYHTSSLHSGVPSRFSGSGSGTDFTLTISSLQPEDFATYYCQYYSKDLLTFGGGTKLEIK
notes: humanized Fab clone of 135C12; also called humanized antibody A35783
With B5, in assay [1], the Kd stood at 2.55 nM, the koff came out at 0.000196 s⁻¹ and the kon stood at 76800 M⁻¹ s⁻¹. Moreover, in the assay with monkey Fc-PD-1 protein [2], the affinity, expressed as Kd, was 1.9 nM; the koff was determined as 0.0008 s⁻¹; the kon came to 421000 M⁻¹ s⁻¹.

B6: A36437 (Fab, V domains shown)
VH: EVQLVQSGAEVKKPGESLKISCKGSGYSFTNFYIHWVRQMPGKGLEWMGSIYPNYGDTAYNQKFKDRFVFSLDTSVSTAYLQISSLKAEDTAVYYCARGYSYAMDYWGQGTTVTVSS
VL: DIQMTQSPSTLSASVGDRVTITCSASQGISGDLNWYQQKPGQAPRLLIYHTSSLHSGIPARFSGSGSGTDFTLTISSLQPEDFAVYYCQYYSKDLLTFGGGTKLEIK
notes: humanized Fab clone of 135C12; also called humanized antibody A36437
Turning to B6, in assay [1], the Kd worked out at 4.46 nM, the koff came to 0.000317 s⁻¹ and the kon came out at 71000 M⁻¹ s⁻¹. In the assay with monkey Fc-PD-1 protein [2], this molecule had a Kd of 6.07 nM, a koff of 0.000368 s⁻¹ and a kon of 60700 M⁻¹ s⁻¹.

B7: A36448 (Fab, V domains shown)
VH: EVQLVQSGAEVKKPGESLKISCKGSGYSFTNFYIHWVRQMPGKGLEWMGSIYPNYGDTAYNQKFKDRFVFSLDTSVSTAYLQISSLKAEDTAVYYCARGYSYAMDYWGQGTTVTVSS
VL: DIQMTQSPSTLSASVGDRVTITCSASQGISGDLNWYQQKPGKTPKLLIYHTSSLHSGVPSRFSGSGSGTDFTLTISSLQPEDFATYYCQYYSKDLLTFGGGTKLEIK
notes: humanized Fab clone of 135C12; also called humanized antibody A36448
For B7, in assay [1], the Kd was determined as 4.31 nM, the koff came out at 0.000386 s⁻¹ and the association rate constant (kon) was found to be 89600 M⁻¹ s⁻¹.

B8: A35777 (Fab, V domains shown)
VH: EVQLVQSGAEVKKPGATVKISCKVSGYTFTNFYIHWVRQAPGKGLEWMGSIYPNYGDTAYNQKFKDRVTITADKSTSTAYMELSSLRSEDTAVYYCARGYSYAMDYWGQGTTVTVSS
VL: DIQMTQSPSTLSASVGDRVTITCSASQGISGDLNWYQQKPGQAPRLLIYHTSSLHSGVPSRFSGSGSGTDFTLTISSLQPEDFATYYCQYYSKDLLTFGGGTKLEIK
notes: humanized Fab clone of 135C12; also called humanized antibody A35777
With B8, in assay [1], the Kd worked out at 5.13 nM, the koff amounted to 0.000352 s⁻¹ and the kon is 68600 M⁻¹ s⁻¹. In addition, in the assay with monkey Fc-PD-1 protein [2], the Kd turned out to be 5 nM, the koff was 0.000575 s⁻¹ and the association rate constant (kon) was 115000 M⁻¹ s⁻¹.

B9: A35796 (Fab, V domains shown)
VH: QMQLVQSGPEVKKPGTSVKVSCKASGFTFTNYWIGWVRQAPGQALEWMGDIYPGGGYTNYNEKFKGRVTITADKSTSTAYMELSSLRSEDTAVYYCARGYDFVLDRWGQGTTVTVSS
VL: DVVMTQSPAFLSVTPGEKVTITCKSSQSLFNSETQKNYLAWYQQKPGQPPKLLIYWASTRESGVPSRFSGSGSGTDFTLTISSLQPEDFATYYCKQSYTLRTFGGGTKLEIK
notes: humanized Fab clone of 137F2; also called humanized antibody A35796
In the assay with monkey Fc-PD-1 protein [3], B9 returned a Kd of 1.03 nM, a koff of 9.81e-05 s⁻¹ and a kon of 95300 M⁻¹ s⁻¹. Further, in assay [4], the Kd turned out to be 1.18 nM, the off-rate constant (koff) amounted to 0.000123 s⁻¹ and the kon was found to be 104000 M⁻¹ s⁻¹.

B10: A35805 (Fab, V domains shown)
VH: QVQLVQSGSELKKPGASVKVSCKASGYTFTNYWIGWVRQAPGKGLEWMGDIYPGGGYTNYNEKFKGRVTITADKSTSTAYMELSSLRSEDTAVYYCARGYDFVLDRWGQGTTVTVSS
VL: DVVMTQSPAFLSVTPGEKVTITCKSSQSLFNSETQKNYLAWYQQKPGQPPKLLIYWASTRESGVPSRFSGSGSGTDFTFTISSLEAEDAATYYCKQSYTLRTFGGGTKLEIK
notes: humanized Fab clone of 137F2; also called humanized antibody A35805
Take B10: in the assay with monkey Fc-PD-1 protein [3], binding was put at a Kd of 1.08 nM, the koff worked out at 9.49e-05 s⁻¹ and the kon stood at 88200 M⁻¹ s⁻¹. Moreover, in assay [4], the Kd was 0.937 nM, the off-rate (koff) worked out at 8.78e-05 s⁻¹ and the kon was determined as 93700 M⁻¹ s⁻¹.

B11: A35799 (Fab, V domains shown)
VH: QMQLVQSGAEVKKTGSSVKVSCKASGYTFTNYWIGWVRQMPGKGLEWMGDIYPGGGYTNYNEKFKGRVTITADKSTSTAYMELSSLRSEDTAVYYCARGYDFVLDRWGQGTTVTVSS
VL: DVVMTQSPAFLSVTPGEKVTITCKSSQSLFNSETQKNYLAWYQQKPGQPPKLLIYWASTRESGVPSRFSGSGSGTDFTLTISSLQPEDFATYYCKQSYTLRTFGGGTKLEIK
notes: humanized Fab clone of 137F2; also called humanized antibody A35799
For the molecule B11, in the assay with monkey Fc-PD-1 protein [3], binding was put at a Kd of 1.88 nM, the off-rate (koff) came to 0.000169 s⁻¹ and the kon stood at 89700 M⁻¹ s⁻¹. For the same molecule, in assay [4], the Kd was 0.734 nM, the koff worked out at 7.43e-05 s⁻¹ and the kon worked out at 101000 M⁻¹ s⁻¹.

B12: A35818 (Fab, V domains shown)
VH: QMQLVQSGPEVKKPGTSVKVSCKASGFTFTNYWIGWVRQAPGQALEWMGDIYPGGGYTNYNEKFKGRVTITADKSTSTAYMELSSLRSEDTAVYYCARGYDFVLDRWGQGTTVTVSS
VL: DVVMTQSPAFLSVTPGEKVTITCKSSQSLFNSETQKNYLAWYQQKPGQAPRLLIYWASTRESGVPSRFSGSGSGTDFTFTISSLEAEDAATYYCKQSYTLRTFGGGTKLEIK
notes: humanized Fab clone of 137F2; also called humanized antibody A35818
On to B12, for which, in the assay with monkey Fc-PD-1 protein [3], the Kd was determined as 1.27 nM, the koff amounted to 0.000116 s⁻¹ and the kon came out at 91400 M⁻¹ s⁻¹. For the same molecule, in assay [4], the dissociation constant Kd came out at 1.06 nM, the dissociation rate constant (koff) worked out at 0.000104 s⁻¹ and the kon was 98800 M⁻¹ s⁻¹.

B13: A35795 (Fab, V domains shown)
VH: QVQLVQSGAEVKKPGASVKVSCKASGYTFTNYWIGWVRQAPGQGLEWMGDIYPGGGYTNYNEKFKGRVTITADKSTSTAYMELSSLRSEDTAVYYCARGYDFVLDRWGQGTTVTVSS
VL: DVVMTQSPAFLSVTPGEKVTITCKSSQSLFNSETQKNYLAWYQQKPGQAPRLLIYWASTRESGVPSRFSGSGSGTDFTLTISSLQPEDFATYYCKQSYTLRTFGGGTKLEIK
notes: humanized Fab clone of 137F2; also called humanized antibody A35795
In the case of B13, in the assay with monkey Fc-PD-1 protein [3], the Kd was found to be 1.64 nM, the dissociation rate constant (koff) was found to be 0.000152 s⁻¹ and the association rate constant (kon) is 92500 M⁻¹ s⁻¹. Further, in assay [4], the dissociation constant Kd came to 0.797 nM, the koff was 8.24e-05 s⁻¹ and the kon is 103000 M⁻¹ s⁻¹.

B14: A35793 (Fab, V domains shown)
VH: QMQLVQSGPEVKKPGTSVKVSCKASGFTFTNYWIGWVRQAPGQALEWMGDIYPGGGYTNYNEKFKGRVTITADKSTSTAYMELSSLRSEDTAVYYCARGYDFVLDRWGQGTTVTVSS
VL: DVVMTQSPAFLSVTPGEKVTITCKSSQSLFNSETQKNYLAWYQQKPGQPPKLLIYWASTRESGVPSRFSGSGSGTDFTFTISSLEAEDAATYYCKQSYTLRTFGGGTKLEIK
notes: humanized Fab clone of 137F2; also called humanized antibody A35793
Take B14: in the assay with monkey Fc-PD-1 protein [3], binding was characterised by a dissociation constant (Kd) of 1.13 nM, the off-rate constant (koff) was determined as 0.000105 s⁻¹ and the kon amounted to 93200 M⁻¹ s⁻¹. Moreover, in assay [4], the Kd stood at 0.912 nM, the koff was 9.49e-05 s⁻¹ and the kon turned out to be 104000 M⁻¹ s⁻¹.
